Source: patent US10064928B2, “Peptides and combination of peptides for use in immunotherapy against CLL and other cancers” (IMMATICS BIOTECHNOLOGIES GMBH, priority 2015, dated 2018)

How the values were obtained:
CD8+ T cells = assay: In vitro T-cell priming assay with aAPCs loaded with peptide/MHC and anti-CD28, multimer readout; type: cell-based, human; conditions: in vitro immunogenicity, percentage of positive wells; for Wells positive [%]: HLA-A*02 restricted peptides; for wells: healthy HLA-A*02 donors
Description: In order to obtain information regarding the immunogenicity of the TUMAPs of the present invention, the inventors performed investigations using an in vitro T-cell priming assay based on repeated stimulations of CD8+ T cells with artificial antigen presenting cells (aAPCs) loaded with peptide/MHC complexes and anti-CD28 antibody.
In order to perform in vitro stimulations by artificial antigen presenting cells loaded with peptide-MHC complex (pMHC) and anti-CD28 antibody, the inventors first isolated CD8+ T cells from fresh HLA-A*02 leukapheresis products via positive selection using CD8 microbeads (Miltenyi Biotec, Bergisch-Gladbach, Germany) of healthy donors obtained from the University clinics Mannheim, Germany, after informed consent.
PBMCs and isolated CD8+ lymphocytes were incubated in T-cell medium (TCM) until use consisting of RPMI-Glutamax (Invitrogen, Karlsruhe, Germany) supplemented with 10% heat inactivated human AB serum (PAN-Biotech, Aidenbach, Germany), 100 U/ml Penicillin/100 μg/ml Streptomycin (Cambrex, Cologne, Germany), 1 mM sodium pyruvate (CC Pro, Oberdorla, Germany), 20 μg/ml Gentamycin (Cambrex). 2.5 ng/ml IL-7 (PromoCell, Heidelberg, Germany) and 10 U/ml IL-2 (Novartis Pharma, Nürnberg, Germany) were also added to the TCM at this step.
Generation of pMHC/anti-CD28 coated beads, T-cell stimulations and readout was performed in a highly defined in vitro system using four different pMHC molecules per stimulation condition and 8 different pMHC molecules per readout condition.
The purified co-stimulatory mouse IgG2a anti human CD28 Ab 9.3 (Jung et al., 1987) was chemically biotinylated using Sulfo-N-hydroxysuccinimidobiotin as recommended by the manufacturer (Perbio, Bonn, Germany). Beads used were 5.6 μm diameter streptavidin coated polystyrene particles (Bangs Laboratories, Illinois, USA).
800.000 beads/200 μl were coated in 96-well plates in the presence of 4×12.5 ng different biotin-pMHC, washed and 600 ng biotin anti-CD28 were added subsequently in a volume of 200 μl. Stimulations were initiated in 96-well plates by co-incubating […] CD8+ T cells with 2×10^5 washed coated beads in 200 μl TCM supplemented with 5 ng/ml IL-12 (PromoCell) for 3 days at 37° C. Half of the medium was then exchanged by fresh TCM supplemented with 80 U/ml IL-2 and incubating was continued for 4 days at 37° C. This stimulation cycle was performed for a total of three times. For the pMHC multimer readout using 8 different pMHC molecules per condition, a two-dimensional combinatorial coding approach was used as previously described (Andersen et al., 2012) with minor modifications encompassing coupling to 5 different fluorochromes. Finally, multimeric analyses were performed by staining the cells with Live/dead near IR dye (Invitrogen, Karlsruhe, Germany), CD8-FITC antibody clone SK1 (BD, Heidelberg, Germany) and fluorescent pMHC multimers. For analysis, a BD LSRII SORP cytometer equipped with appropriate lasers and filters was used. Peptide specific cells were calculated as percentage of total CD8+ cells. Evaluation of multimeric analysis was done using the FlowJo software (Tree Star, Oreg., USA). In vitro priming of specific multimer+CD8+ lymphocytes was detected by comparing to negative control stimulations.

HLA-A*02:01 = HLA-A*02:01 (Homo sapiens, UniProt P04439, D140Y/D185E/D98H/E176V/E277Q/G131W/G231S/I119V/I121R/I166T/I218V/L300P/L318F/N151K/N90K/P208A/P217A/Q86G/Q94H/R138H/R169H/T345S); assay: MHC binding assay (UV-ligand exchange, beta2m ELISA); conditions: binding of HLA-class I restricted peptides to HLA-A*02:01, β2m ELISA
In short: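 UV-exchange pMHC monomers, 100-fold diluted → streptavidin capture 1 h 37 °C → HRP anti-β2m 2 ug/ml 1 h 37 °C → TMB, A450. Yield from HLA-A*02:01/MLA-001 monomer standard curve, 15-500 ng/ml. Only stably bound peptides keep β2m-containing complexes intact.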

Row | Substance | Wells positive [%] (CD8+ T cells) | Peptide Exchange (MHC class I binding score, peptide exchange yield) (HLA-A*02:01) | wells (CD8+ T cells)
1 | 201 (YQLELHGIEL; listed as Homo sapiens) [compound 201] | “+” (<20% = +) | “++++” (≥75% = ++++) | 
2 | 322 (SLASIHVPL; listed as Homo sapiens) [compound 322] | “+” (<20% = +) | “+++” (≥50 = +++) | 
3 | 329 (VLMDGSVKL; listed as Homo sapiens) [compound 329] | “+++” (50%-69% = +++) | “++++” (≥75% = ++++) | 
4 | 154 (SLLAELHVLTV; listed as Homo sapiens) [compound 154] | “+” (<20% = +) | “++++” (≥75% = ++++) | 
5 | 81 (WLVGQEFEL; listed as Homo sapiens) [compound 81] | “+” (<20% = +) | “+++” (≥50 = +++) | 
6 | 281 (NLLDDRGMTAL; listed as Homo sapiens) [compound 281] | “+” (<20% = +) | “+++” (≥50 = +++) | 
7 | 86 (HLYPGAVTI; listed as Homo sapiens) [compound 86] | “+” (<20% = +) | “+++” (≥50 = +++) | 
8 | 427 (LLYDAVHIV; listed as Homo sapiens) [compound 427] |  |  | ++ (20%-49% = ++)
9 | 49 (FLTDLFAQL; listed as Homo sapiens) [compound 49] | “++” (20%-49% = ++) | “++++” (≥75% = ++++) | 
10 | 102 (IQDRAVPSL; listed as Homo sapiens) [compound 102] | “+” (<20% = +) | “++” (≥20% = ++) | 
11 | 202 (YVDDVFLRV; listed as Homo sapiens) [compound 202] | “++” (20%-49% = ++) | “++++” (≥75% = ++++) | 
12 | 69 (GLHQREIFL; listed as Homo sapiens) [compound 69] | “+” (<20% = +) | “+++” (≥50 = +++) | 
13 | 332 (VMIQHVENL; listed as Homo sapiens) [compound 332] | “+” (<20% = +) | “+++” (≥50 = +++) | 
14 | 282 (LLRDGIELV; listed as Homo sapiens) [compound 282] | “++” (20%-49% = ++) | “+++” (≥50 = +++) | 
15 | 521 (YLYGQTTTYL; listed as Homo sapiens) [compound 521] |  |  | ++ (20%-49% = ++)
16 | 15 (ALPEVSVEA; listed as Homo sapiens) [compound 15] |  | “+++” (≥50 = +++) | 
17 | 289 (ILEEQPMDMLL; listed as Homo sapiens) [compound 289] |  | “+++” (≥50 = +++) | 
18 | 352 (ALVFELHYV; listed as Homo sapiens) [compound 352] |  | “+++” (≥50 = +++) | 
19 | 185 (VMDDQRDLI; listed as Homo sapiens) [compound 185] |  | “++” (≥20% = ++) | 
20 | 16 (ALPGGAAVAAV; listed as Homo sapiens) [compound 16] |  | “++++” (≥75% = ++++) | 
21 | 181 (VLLSIPFVSV; listed as Homo sapiens) [compound 181] |  | “+++” (≥50 = +++) | 
22 | 131 (LQALEVLKI; listed as Homo sapiens) [compound 131] |  | “+” (≥10% = +) | 
23 | 286 (FLLEDLSQKL; listed as Homo sapiens) [compound 286] |  | “+++” (≥50 = +++) | 
24 | 157 (SLNIRDFTM; listed as Homo sapiens) [compound 157] |  | “+++” (≥50 = +++) | 

Row | Substance | Wells positive [%] (CD8+ T cells) | Peptide Exchange (MHC class I binding score, peptide exchange yield) (HLA-A*02:01) | wells (CD8+ T cells)
25 | 12 (ALGEDEITL; listed as Homo sapiens) [compound 12] |  | “+++” (≥50 = +++) | 
26 | 325 (TLENGVPCV; listed as Homo sapiens) [compound 325] |  | “+++” (≥50 = +++) | 
27 | 66 (SLAGGLDDMKA; listed as Homo sapiens) [compound 66] |  | “+++” (≥50 = +++) | 
28 | 48 (FLSPQQPPLL; listed as Homo sapiens) [compound 48] |  | “+++” (≥50 = +++) | 
29 | 125 (LLLEIGEVGKLFV; listed as Homo sapiens) [compound 125] |  | “+++” (≥50 = +++) | 
30 | 378 (YILGKFFAL; listed as Homo sapiens) [compound 378] |  | “+++” (≥50 = +++) | 
31 | 104 (KLILLDTPLFL; listed as Homo sapiens) [compound 104] |  | “+++” (≥50 = +++) | 
32 | 107 (ILYNLYDLL; listed as Homo sapiens) [compound 107] |  | “+++” (≥50 = +++) | 
33 | 210 (KLLVQDFFL; listed as Homo sapiens) [compound 210] |  | “+++” (≥50 = +++) | 
34 | 111 (KLWNVAAPLYL; listed as Homo sapiens) [compound 111] |  | “+++” (≥50 = +++) | 
35 | 59 (FVFGDENGTVSL; listed as Homo sapiens) [compound 59] |  | “+++” (≥50 = +++) | 
36 | 30 (ELLEGSEIYL; listed as Homo sapiens) [compound 30] |  | “+++” (≥50 = +++) | 
37 | 136 (NLDKLWTLV; listed as Homo sapiens) [compound 136] |  | “++” (≥20% = ++) | 
38 | 90 (VIADLGLIRV; listed as Homo sapiens) [compound 90] |  | “+++” (≥50 = +++) | 
39 | 186 (VMDPTKILI; listed as Homo sapiens) [compound 186] |  | “++++” (≥75% = ++++) | 
40 | 211 (LIDVKPLGV; listed as Homo sapiens) [compound 211] |  | “+++” (≥50 = +++) | 
41 | 247 (KLKDRLPSI; listed as Homo sapiens) [compound 247] |  | “++” (≥20% = ++) | 
42 | 373 (TLLADQGEIRV; listed as Homo sapiens) [compound 373] |  | “++” (≥20% = ++) | 
43 | 365 (LISPLLLPV; listed as Homo sapiens) [compound 365] |  | “+++” (≥50 = +++) | 
44 | 255 (YLFEEAISM; listed as Homo sapiens) [compound 255] |  | “+++” (≥50 = +++) | 
45 | 193 (YLDLSNNRL; listed as Homo sapiens) [compound 193] |  | “+++” (≥50 = +++) | 
46 | 306 (VVAEELENV; listed as Homo sapiens) [compound 306] |  | “++” (≥20% = ++) | 
47 | 84 (GVMDVNTAL; listed as Homo sapiens) [compound 84] |  | “++” (≥20% = ++) | 
